Results published in paper PMC4493011, “The Cold Shock Domain of YB-1 Segregates RNA from DNA by Non-Bonded Interactions”.

Experiments:
Settings in all cases: protein: recombinant; single strand
YB-1 (full-length) [1] = target: T1, YB-1 (full-length) (human, UniProt P67809 1-324); assay: EMSA; apparent Kd, protein concentration at 50% saturation; 7 pmol DNA in 10 ul; 10 mM Hepes-KOH pH 7.6, 100 mM KCl, 30 C, 15 min, 10 ul; 8% native PAGE in TBE, silver staining
[2] = target: T2, YB-1 cold shock domain (CSD) (human, UniProt P67809 51-129); assay: as above
YB-1 (full-length) [3] = target: T1, YB-1 (full-length); assay: EMSA; apparent Kd, protein concentration at 50% saturation; 7 pmol RNA in 10 ul; 10 mM Hepes-KOH pH 7.6, 100 mM KCl, 30 C, 15 min, 10 ul; 8% native PAGE in TBE, silver staining
[4] = target: T2, YB-1 cold shock domain (CSD); assay: as above

T1 sequence (P67809 whole entry, the tested form may be a part): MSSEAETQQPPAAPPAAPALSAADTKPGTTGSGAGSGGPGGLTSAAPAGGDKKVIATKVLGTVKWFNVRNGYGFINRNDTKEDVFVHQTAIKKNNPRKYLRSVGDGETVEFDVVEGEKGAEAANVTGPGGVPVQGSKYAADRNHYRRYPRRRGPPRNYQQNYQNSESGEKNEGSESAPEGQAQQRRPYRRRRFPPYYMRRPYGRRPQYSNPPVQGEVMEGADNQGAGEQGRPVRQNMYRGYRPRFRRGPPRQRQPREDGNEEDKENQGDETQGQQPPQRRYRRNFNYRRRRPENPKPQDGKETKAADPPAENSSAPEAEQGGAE
T2 sequence (P67809 51-129): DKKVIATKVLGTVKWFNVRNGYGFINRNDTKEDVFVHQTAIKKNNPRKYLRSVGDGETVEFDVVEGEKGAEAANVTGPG

Row | Binder | Kd (YB-1 (full-length) [1]) [nM] | Kd [2] [nM] | Kd (YB-1 (full-length) [3]) [nM] | Kd [4] [nM]
1 | AGGATGGGTGAGTGAGGTAG (ssDNA) [G-rich DNA 20-mer] | 600 | 6000 |  | 
2 | AGGAUGGGUGAGUGAGGUAG (ssRNA) [G-rich RNA 20-mer] |  |  | 300 | 2500
